This note sets out measurements from PMC6683498, “The conserved actinobacterial transcriptional regulator FtsR controls expression of ftsZ and further target genes and influences growth and cell division in Corynebacterium glutamicum”.

Data set [1] has as its target T1, FtsR-Strep (Corynebacterium glutamicum ATCC13032) (UniProt Q8NQJ2).
T1 sequence: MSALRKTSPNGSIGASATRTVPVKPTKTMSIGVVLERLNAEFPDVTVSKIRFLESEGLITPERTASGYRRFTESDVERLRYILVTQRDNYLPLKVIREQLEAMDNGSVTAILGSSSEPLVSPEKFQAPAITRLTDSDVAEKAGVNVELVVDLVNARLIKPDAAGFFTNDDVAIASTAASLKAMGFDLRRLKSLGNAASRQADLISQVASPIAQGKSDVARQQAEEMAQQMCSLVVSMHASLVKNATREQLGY
As to the kind of experiment: competition. The settings on record: EMSA: 10 mM Tris-HCl pH 7.5, 30 mM NaCl, 1.5 mM Na2EDTA, room temperature, 30 min; 15% native PAGE in 1x TBE (competition EMSA: 10% gel).

Data set [2] has as its target T1, FtsR-Strep (Corynebacterium glutamicum ATCC13032). As to the kind of experiment: EMSA. The conditions noted are these: EMSA: 10 mM Tris-HCl pH 7.5, 30 mM NaCl, 1.5 mM Na2EDTA, room temperature, 30 min; 15% native PAGE in 1x TBE (competition EMSA: 10% gel).
Data set [3] addresses FtsR-Strep (FtsR, Cg1631, of Corynebacterium glutamicum ATCC13032 with C-terminal StrepTag-II) (Corynebacterium glutamicum ATCC13032). The data set is described as follows: SEC; affinity-purified FtsR-Strep on Superdex 200 Increase 10/300 GL, buffer W (50 mM Tris-HCl, 250 mM NaCl, pH 7.5), 0.6 mL/min; compared to standard proteins.
The target of data set [4] is T2, FtsR-Strep (Corynebacterium glutamicum ATCC13032, UniProt Q8NQJ2 1-252).
T2 sequence: T1 sequence
As to the kind of experiment: EMSA; 1 uM DNA; complete shift at 2-fold molar excess of dimer; EMSA: 10 mM Tris-HCl pH 7.5, 30 mM NaCl, 1.5 mM Na2EDTA, room temperature, 30 min; 15% native PAGE in 1x TBE (competition EMSA: 10% gel). The settings on record: protein: recombinant; chain copies: 2; blunt.

Consider “AGTGCTTCCTGCGGTTATTGCTGTAATCAACGCAATTAAAGCGCAAGATGCGCAGATGACAGAAAGTATCCAGGTAGTGGAAGCTCCGGATCAATTTGATATCTTGCTGAAAATGAATGATGGCCGGGAAATCTACTGGGGATCCTCGGAAAACAACCACGATAAAGCGGTGGCAATGTCGACTGTTTTGAAGCGGGAAGGCCAACGTTGGAACATTAGCTCACCCTCAATGGTGACAGTCCGCTAAAGTGGCTGGGTAG (double strand)”, for which the binding result in data set [1] is reported as “no binding”.

Consider “AGTTCCGGTTCACCCGTTTCCACAACGCGTTTGCCCACCTCAACAACCCTAAAGTAAAGGTTGAGGGTAGCGACACGCCGCTGTAAATGTCCGACACATTGACGTGTTTTTCGCACAAGATATATGTCAGCCGGATTAACACTTTTAGATAAGCTCTCACAGTGCTGACTGCTTATCTGAGATGAAAATAAAAGCAAAATTTTTTTTAGTATCAACTCTTCGAAAGGCGAGACATCGACAATGACCTCACCGAACAACTACCTCGCCAAGA (double strand) [ftsZ promoter 271-bp fragment, Cy3]”, for which the binding result in data set [2] is given as “binds”. With “AGTTCCGGTTCACCCGTTTCCACAACGCGTTTGCCCACCTCAACAACCCTAAAGTAAAGGTTGAGGGTAGCGACACGCCGCTGTAAATGTCCGACACATTGACGTGTTTTTCGCACAAGATATATGTCAGCCGGATTAACACTTTTAGATAAGCTCTCACAGTGCTGACTGCTTATCTGAGATGAAAATAAAAGCAAAATTTTTTTTAGTATCAACTCTTCGAAAGGCGAGACATCGACAATGACCTCACCGAACAACTACCTCGCCAAGA (double strand) [ftsZ promoter 271-bp fragment, unlabeled specific competitor]”, the binding result in data set [1] is recorded as “binds”. With “FtsR-Strep (FtsR, Cg1631, of Corynebacterium glutamicum ATCC13032 with C-terminal StrepTag-II) (natural protein)”, the stoichiometry N in data set [3] is 2.

B1: ftsZ promoter 30-bp oligo (dsDNA)
DNA 1: ACAACCCTAAAGTAAAGGTTGAGGGTAGCG
DNA 2: CGCTACCCTCAACCTTTACTTTAGGGTTGT
As for B1, the binding result in data set [4] is recorded as “binds”.
